Fewer inactive variants are shown than the library holds.
Assays:
biotinyl-Trp-oxazolone = assay: self-aminoacylation, catalytic enhancement (BWO) (fold over background); higher = more active; k-Seq, kA / k0A0; sequences stand for … in GGGAAUGGAUCCACAUCUACGAAUUC…UUCACUGCAGACUUGACGAAGCUG
Procedure, shortened: (§1)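 Working in 50 μL HEPES/NaCl/KCl/MgCl2/CaCl2 buffer with 5% acetonitrile at pH 6.9–7.0, mutagenized RNA pools (0.43 μM; 21-nt variable region) were reacted with 2–1250 μM of each biotinyl-aminoacyl-oxazolone for 90 minutes at room temperature. Streptavidin capture followed, with quantification by triplicate qPCR and Illumina sequencing. Catalytic enhancement is reported as median kA over the uncatalyzed rate, the low-activity peak of a bimodal Gaussian fit to the data.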

biotinyl-Phe-oxazolone = assay: self-aminoacylation, catalytic enhancement (BFO) (fold over background); higher = more active; k-Seq, kA / k0A0; sequences stand for … in GGGAAUGGAUCCACAUCUACGAAUUC…UUCACUGCAGACUUGACGAAGCUG
Procedure, shortened: as §1

Sequence | self-aminoacylation (biotinyl-Trp-oxazolone) | self-aminoacylation (biotinyl-Phe-oxazolone)
AAGUAUGCUAAUAGUCGCACG [Fam3.1 aminoacylation ribozyme variant] | 2.03 | 
CAACAUCAAACAAUCGGUCUG [Fam1A.1 aminoacylation ribozyme variant] | 3.73 | 7.46
AUUCACCUAGGUGAUCGGGUC [Fam2.2 aminoacylation ribozyme variant] |  | 2.84
AAGUUUUCCAAUAGUCGCAAG [Fam3.1 aminoacylation ribozyme variant] |  | 2.43
CUACUUCAAAUAAUCGGACUG [Fam1A.1 aminoacylation ribozyme variant] | 2.71 | 6.03
AAGUUUUCUCAUAGUCGCAAG [Fam3.1 aminoacylation ribozyme variant] |  | 3.59
UUACUUCAAACAAUCGGUCUU [Fam1A.1 aminoacylation ribozyme variant] | 9.31 | 17
CUACAUCAAACAAGCGGUCUG [Fam1A.1 aminoacylation ribozyme variant] |  | 4.11
AUUCAACUAGGUCAUCGUGUG [Fam2.2 aminoacylation ribozyme variant] |  | 5.52
CCACUUCAAACAAUCGAUCUG [Fam1A.1 aminoacylation ribozyme variant] |  | 4.61
AUACAUCAAACAAUCGGUCUG [Fam1A.1 aminoacylation ribozyme variant] | 2.68 | 4.05
CGACUCCAAACAAUCGGUCUG [Fam1A.1 aminoacylation ribozyme variant] | 3.11 | 3.55
ACACACUUCAAGCGAUCGGUC [Fam1B.1 aminoacylation ribozyme variant] |  | 2.18
CCCCAAUUCAAGCAAUCGGUC [Fam1B.1 aminoacylation ribozyme variant] | 7.09 | 7.89
CCACACUUCAAACAACCGGUC [Fam1B.1 aminoacylation ribozyme variant] |  | 2.26
AUUAGCCUCGUCAUCGAGUGA [Fam2.1 aminoacylation ribozyme variant] |  | 2.19
AAGGUUGCUAAUAGUCGCACG [Fam3.1 aminoacylation ribozyme variant] |  | 2.39
AUUCACCUAGUUCAUCGGGAG [Fam2.2 aminoacylation ribozyme variant] |  | 2.23
AAGUUUGCUUAUAGUCGCAAA [Fam3.1 aminoacylation ribozyme variant] |  | 2.38
AAGUUUGCGAAUAUUCGCAAG [Fam3.1 aminoacylation ribozyme variant] | 2.71 | 
CGACUUCAAACAACCGGUCUG [Fam1A.1 aminoacylation ribozyme variant] | 2.13 | 
AAGCUUCCUAAUAGUCGCAAG [Fam3.1 aminoacylation ribozyme variant] |  | 2.32
AAUACCCUGGUCAUCGAGUUA [Fam2.1 aminoacylation ribozyme variant] |  | 2.17
CCCCACUUCAAGCAAUAGGUC [Fam1B.1 aminoacylation ribozyme variant] |  | 2.02
GUACUUUAAACAAUCGGUCUG [Fam1A.1 aminoacylation ribozyme variant] | 2.08 | 
CUACGUCAAACAAUUGGUCUG [Fam1A.1 aminoacylation ribozyme variant] |  | 2.06

Sequence | self-aminoacylation (biotinyl-Trp-oxazolone) | self-aminoacylation (biotinyl-Phe-oxazolone)
AUUCACCUAGGUCCUCGUGUG [Fam2.2 aminoacylation ribozyme variant] |  | 5.79
UAGUUUGCUCAUAGUCGCAAG [Fam3.1 aminoacylation ribozyme variant] |  | 2.67
AGGUUUGCUUAUAGUCGCAAG [Fam3.1 aminoacylation ribozyme variant] |  | 2.89
ACGUUUGCUAAUAGUCGCAGG [Fam3.1 aminoacylation ribozyme variant] |  | 3.87
UAGUUGGCUAAUAGUCGCAAG [Fam3.1 aminoacylation ribozyme variant] |  | 2.38
CCCCACUACAAGCAAUCGGUC [Fam1B.1 aminoacylation ribozyme variant] |  | 2.24
CUACGUCAAACGAUCGGUCUG [Fam1A.1 aminoacylation ribozyme variant] |  | 3.76
AUUAGCCUGGUCAUCGAGUGC [Fam2.1 aminoacylation ribozyme variant] |  | 2.04
AUUACCCUGGUCGUCGAGUGG [Fam2.1 aminoacylation ribozyme variant] |  | 2.7
AAGUUUGCUAACAGCCGCAAG [Fam3.1 aminoacylation ribozyme variant] |  | 3.09
AAGUUUUCUAAUAGUCGCAAU [Fam3.1 aminoacylation ribozyme variant] |  | 2.37
CCACACUUCAAGAAUUCGGUC [Fam1B.1 aminoacylation ribozyme variant] |  | 7.52
AAGUUUACUAAUAGUCGAAAG [Fam3.1 aminoacylation ribozyme variant] |  | 2.51
AUUACGCUGGUCAUCGAGCGA [Fam2.1 aminoacylation ribozyme variant] | 2.16 | 
UUUACCCUGGUCGUCGAGUGA [Fam2.1 aminoacylation ribozyme variant] |  | 5.7
AUUACCCUGGUCAUCGUGUGG [Fam2.1 aminoacylation ribozyme variant] |  | 2.9
AAGUUUCCUAAUGGUCGCAAG [Fam3.1 aminoacylation ribozyme variant] |  | 2.62
AGGUUUUCUAAUAGUCGCAAG [Fam3.1 aminoacylation ribozyme variant] |  | 2.83
AGUACCCUGGUCAUCGAGUUA [Fam2.1 aminoacylation ribozyme variant] |  | 2.58
CUACUUGAAACACUCGGUCUG [Fam1A.1 aminoacylation ribozyme variant] |  | 3.53
AAGGUUGCCAAUAGUCGCAAG [Fam3.1 aminoacylation ribozyme variant] |  | 2.4
AAGAUUGCUAAUAGCCGCAAG [Fam3.1 aminoacylation ribozyme variant] | 2.47 | 
AAGUUUGCUAGUAGUCGCAAA [Fam3.1 aminoacylation ribozyme variant] | 2.13 | 
AAGUUCGCUAAUAGUCUCAAG [Fam3.1 aminoacylation ribozyme variant] |  | 2.72
AUUCACCUAGGUUAUCAGGUG [Fam2.2 aminoacylation ribozyme variant] | 2.12 | 
CCUCACUUCAAGCAAUCGGAC [Fam1B.1 aminoacylation ribozyme variant] |  | 2.16

Sequence | self-aminoacylation (biotinyl-Trp-oxazolone) | self-aminoacylation (biotinyl-Phe-oxazolone)
CUAAAUCAAACAAUCGGUCUG [Fam1A.1 aminoacylation ribozyme variant] |  | 3.19
AUUCACCUACUUCAUCGGGUG [Fam2.2 aminoacylation ribozyme variant] |  | 3.44
AAUCACCUAGGUCAUAGGGUG [Fam2.2 aminoacylation ribozyme variant] | 2.15 | 
CAGUUUCCUAAUAGUCGCAAG [Fam3.1 aminoacylation ribozyme variant] |  | 2.17
AUUCACCUACGUCAUCGGCUG [Fam2.2 aminoacylation ribozyme variant] |  | 2.24
AAUCACCUAGGUCAUCAGGUG [Fam2.2 aminoacylation ribozyme variant] | 2.18 | 
AAGUUUGCUGACAGUCGCAAG [Fam3.1 aminoacylation ribozyme variant] |  | 2.12
AAGUUUGCUAAUGGUCGCAAC [Fam3.1 aminoacylation ribozyme variant] |  | 6.25
ACGUUUGCUAAUAGUCGGAAG [Fam3.1 aminoacylation ribozyme variant] |  | 3.98
AAGUUUCCUAAUAGUUGCAAG [Fam3.1 aminoacylation ribozyme variant] |  | 2.63
AUUACCCUGGUCAGCGAUUGA [Fam2.1 aminoacylation ribozyme variant] |  | 2.52
CUACUUCAAACAAUCUGUCUG [Fam1A.1 aminoacylation ribozyme variant] |  | 3.23
CUACUUCAGACAUUCGGUCUG [Fam1A.1 aminoacylation ribozyme variant] |  | 6.22
AUUAACCUAGGUCAUCGUGUG [Fam2.2 aminoacylation ribozyme variant] |  | 3.17
AAGCUUGCUAAUAGUUGCAAG [Fam3.1 aminoacylation ribozyme variant] |  | 2.19
AAGUUCGGUAAUAGUCGCAAG [Fam3.1 aminoacylation ribozyme variant] |  | 3.24
AUUCAACUAGGUCGUCGGGUG [Fam2.2 aminoacylation ribozyme variant] |  | 6.9
AAGUUGGCUAAUAGUCUCAAG [Fam3.1 aminoacylation ribozyme variant] | 2.27 | 
AUUCACCUAGCUCGUCGGGUG [Fam2.2 aminoacylation ribozyme variant] |  | 4.07
AUUCACCUAGUUCAUCGGGUU [Fam2.2 aminoacylation ribozyme variant] |  | 5.74
AUUCACCUAGGUCAUCGUGCG [Fam2.2 aminoacylation ribozyme variant] |  | 5.13
CUAAUUCAAAUAAUCGGUCUG [Fam1A.1 aminoacylation ribozyme variant] |  | 2.58
CUUCAUCAAACAAUCGGUCUG [Fam1A.1 aminoacylation ribozyme variant] |  | 2.05
AUUCAGCUAGGUCAUCGGAUG [Fam2.2 aminoacylation ribozyme variant] |  | 2.91
